assay: yeast display, Sf9 membrane polyspecificity reagent, FACS + sequencing; frameworks hold sequencing errors
In short: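 A synthetic nanobody library was expressed on Saccharomyces cerevisiae BJ5465 by galactose induction for 36–48 hours. The library was stained for 1 hour at 4 °C with 10% biotinylated, detergent-solubilized Sf9 membrane reagent and enriched with streptavidin microbeads before FACS. Low and high (top ~1%) gates were set on anti-HA fluorescence for expression and streptavidin fluorescence for reagent binding, and each polyreactivity label reflects the gate of origin.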

| Sequence | polyreactivity (PSR sort gate) |
| --- | --- |
| QVQLVESGGGLVQAGGSLRLSCAASGIIFPYYAMGLYRQAPGKERELVAAITSRTGSTYYADSVKGRFTISRDNAKNTVYLQMNSLNTEYTAVYYCIKEREPYGYWSFDYWGQGTQVTVSS | low polyreactivity |
| QVQLVESGGGLVQAGGSLRLSCAASGIIFPYYAMGWSRQGPGKERELVAGISSSGGITYADSVKGRFTISRDNAKYTVYLQMNSLKPEDTAVYYCNAEYQWLEYDYWGQGTQVTVSS | low polyreactivity |
| QVQLVESGGGLVQAGGSLRLSCAASGIIFPYYAMGWYRPAPGKERELVAAITSSGGSTYYADSVKGRFTISRDNAKNTVYLQMNSLKPEDSAVYYCAAQTWGHGGDSWGQGTQVTVSS | high polyreactivity |
| QVQLVESGGGLVQAGGSLRLSCAASGIIFPYYTMGWYRQAPGKERELVARITNGGRTYYADSVKGRFTISRDNAKNTVYLQMISLKPEDTAVYYCNAGRYYIGGYWGQGTQVTVSS | high polyreactivity |
| QVQLVESGGGLVQAGGSLRLSCAASGIIFQGYVMGWYRQAPGKERELVAVISRTRGSTYYADSVKGRFTISRDNAKNTVYLQMNSLKPEDTAVYYCAAGTPRLRYLQGHRMNYWGQGTQVTVSS | high polyreactivity |
| QVQLVESGGGLVQAGGSLRLSCAASGIIFQNYAMGWYRPAPGKERELVAVISNTGSTNYADSVKGRFTISRDNAKNTVYLQMNSLKPEDTAVYYCAAEFRVVDWLWFDYWGQGTQVTVSS | high polyreactivity |
| QVQLVESGGGLVQAGGSLRLSCAASGIIFQSYTMGWYRQPPGKERELVAAIDSGGSTYYADSVKGRFTISRDNAKNTVYLQMNSLKPEDTAVYYCATDYPLSWSPLYDYDYWGQGTQVTVSS | low polyreactivity |
| QVQLVESGGGLVQAGGSLRLSCAASGIIFRDYDMGWYRQAPGKERELVAAITWDGGSTYYADSVKGRFTISRDNAKNTVYLQMNSLTPEDTAVYYCAADSRYHYYVGYYYWGQGTQVTVSS | high polyreactivity |
| QVQLVESGGGLVQAGGSLRLSCAASGIIFRGNAMGWYRQAPGKERELVAGISSRGGSTYYADSVKGRFTISRDNAKNTVYLQMNSLKPEDTAVYYCAAQYRSYLSGYGYWGQGTQVTVSS | high polyreactivity |
| QVQLVESGGGLVQAGGSLRLSCAASGIIFRGYVMGLYIQAPGKERELVAAINSSTGSTYYADSVKGRFTISRDNAKNTVYLQMNSLKPEDTAVYYCNAEDRGSTYVDFDYWGQGTQVTVSS | low polyreactivity |
| QVQLVESGGGLVQAGGSLRLSCAASGIIFRLNAMGWYRQAPGIERELVAAILRRGGSTYYADSVKGRFTISRDNAKNTVYLQMNSLKPEDTAVYYCAKDPHGSDFGYWGQGTQVTVSS | low polyreactivity |
| QVQLVESGGGLVQAGGSLRLSCAASGIIFRNYAMGWYRPAPGKEREFVASITKRGGSTYYADSVKGRFTISRDNAKNTVYLQINSLKPEDTAVYYCNTQWYRGRTEYGYWGQGTQVTVSS | high polyreactivity |
| QVQLVESGGGLVQAGGSLRLSCAASGIIFRPYAMGWYRQAPGKERELVAAITWSGTSTYYADSVKGRFTISRDNAKNTVYLQMNSLKPEDTAVYYCAATWSYGVSWYEYWGQGTQVTVSS | high polyreactivity |
| QVQLVESGGGLVQAGGSLRLSCAASGIIFRRNAMGWYRQAPGKERELVASITSGGSTNYADSVKGRFTISRDNAKNTVYLQMNSLKPEDTAVYYCATVRKYRAMDYWGQGTQVTVSS | high polyreactivity |
| QVQLVESGGGLVQAGGSLRLSCAASGIIFRRYAMGWYRQAPGKERELVAAIRTSGGNTYYADSVKGRFTISRDNAKNTVYLQMNSLKPEDTAVYYCAARRHYTYGNGPSRGGQMDYWGQGTQVTVSS | high polyreactivity |
| QVQLVESGGGLVQAGGSLRLSCAASGIIFRRYAMGWYRQAPGKERELVAAITSGGSTYYADSVKGRFTISRDNAKNTVYLQLHSLKPEDTAVYYCNKGGYAIRYDYYWGQGTQVTVSS | high polyreactivity |

| Sequence | polyreactivity (PSR sort gate) |
| --- | --- |
| QVQLVESGGGLVQAGGSLRLSCAASGIIFRRYAMGWYRQAPGKERELVATITRSGSTNYADSVKGRFTISRDNAKNTVYLQMNSLKPEDTAVYYCNADYIRGGWYSEDYWGQGTQVTVSS | high polyreactivity |
| QVQLVESGGGLVQAGGSLRLSCAASGIIFRRYAMGWYRQAPVKERELVAAITRGGITYYADSVKGRFTISRDNAKNTVYLQMNSLKPEDTAVYYCAALAYPQEYDYWGQGTQVTVSS | low polyreactivity |
| QVQLVESGGGLVQAGGSLRLSCAASGIIFRSYAMGWYRQAPGKERELVAAITGGGTTNYADSVKGRFTISRDNAKNTVYLQMNSLKPEDTEVYYCNAGLDWFWFNEMDYWGQGTQVTVSS | low polyreactivity |
| QVQLVESGGGLVQAGGSLRLSCAASGIIFRSYAMGWYRQAPGKERELVASITSGGSTNYADSVKGRFTNSRDNAKNTVYLQMNSLKPEDTAVYYCAADYYYTSFGGYDYWGQGTQVTVSS | high polyreactivity |
| QVQLVESGGGLVQAGGSLRLSCAASGIIFRWYAMGWYRQAPGKERELVAAISRSGSSTYYADSVKGRFTISRDNAKNTVYLQMNSLKPEDTAVYYCNAEYQAPTEKGRYYYPWPYEYWGQGTQVTVSS | high polyreactivity |
| QVQLVESGGGLVQAGGSLRLSCAASGIIFRYNAMGWYRPAPGKERELVAAITSGGITKYADSVKGRFTISRDNAKNTVYLQMNSLKPEDTAVYYCNAEYGFFRAGSRGEYWGQGTQVTVSS | low polyreactivity |
| QVQLVESGGGLVQAGGSLRLSCAASGIIFRYNAMGWYSQAPGKDRELVAAITYRGGSTRYADSVKGRFTISRDNAKNTVYLQMNSLKPEDTAVYYCNAQRRTYIYDYWGQGTQVTVSS | high polyreactivity |
| QVQLVESGGGLVQAGGSLRLSCAASGIIFRYNTMGWYRQEPGKERELVAAISWSGDSTYYADSVKGRFTISRDNAKNTVYLQMNSLKPEDTAVYYCARSQFSRSPSRMGYWGEGTQVTVSS | high polyreactivity |
| QVQLVESGGGLVQAGGSLRLSCAASGIIFRYYAMGLYRQAPGKERELVAAITTGGSTYYADSVKGRFTISRDNAKNTVYLQMNSLKPEDTAVYYCAAQILVRHIPYYYWGQGTQVTVSS | high polyreactivity |
| QVQLVESGGGLVQAGGSLRLSCAASGIIFRYYAMGWYRQAPGKEREFVAAINYSGGSTYYADSVKGRFTISRDNAKYSVYLLMNSLKPEDTAVYYCAARSYTYTAPIYGYWGQGTQVTVSS | high polyreactivity |
| QVQLVESGGGLVQAGGSLRLSCAASGIIFRYYAMGWYRQAPGKERELVAGITSNGGSTYYADSVKGRFTISRDNAKNTVYLQMNSLKPVDTAVYYCAAVSLYVWWALEYWGQGTQVTVSS | high polyreactivity |
| QVQLVESGGGLVQAGGSLRLSCAASGIIFSDYAMGWYRQAPGKERELVATITRSVRTSYADSVKGRFTISRDNAKNTVYLQMNSLKPEDTAVYYCNADFVGAVIAYDYLGQGTQVTVSS | low polyreactivity |
| QVQLVESGGGLVQAGGSLRLSCAASGIIFSGYAMGWYRQAPGKERELVAAITGSGDITYYADSVKGRFTISRDNAKNTVYLQMNSLKPEDTAVYYCADVASSQYRAEEYNYWGQGTQVTVSS | low polyreactivity |
| QVQLVESGGGLVQAGGSLRLSCAASGIIFSLYAMGAYIQATGKERELVAAITTGGRTYYADSVKGRFTISRDNAKYSVYLQMNSLKPEDTAVYYCAALGPWQGGTTLSTNRGYWGQGTQVTVSS | high polyreactivity |
| QVQLVESGGGLVQAGGSLRLSCAASGIIFSPYARGWYRQAPGKERELVAAISYSGGSTYYADSVKGRFTISRDNAKNTVYLQMNSLKPEDTAVYYCAVVYSYYLAVLGYWDYDYWGQGTQVTVSS | low polyreactivity |
| QVQLVESGGGLVQAGGSLRLSCAASGIIFSQYAMGWYRQAPGKERELVASISRSGGITYYADSVKGRFTISRDNAKNTVYLQMNSLKPEDTAVYYCNAAKACREQWTSFDYWGQGTQVTVSS | high polyreactivity |

— the nanobody polyreactivity screen of Harvey et al. (2022)
